System: JB6 carcinogenesis mouse endothelial model cells
Test: Real-time ATR-FTIR monitoring of confluent cells treated with tumor promoter (bFGF)
Assay type: cell-based
Conditions: 72-hour time point, bFGF added at 48 hours
Protocol: Spent media was replaced with fresh media at 24-hour intervals. Cells were confluent at 24 hours and had attached to the ATR substrate. […] The 1604 cm^−1 band also contains a broad water band which is observed at the 6.5 hour time point where there is greater media contact with the ATR substrate due to a non-confluent cell monolayer. […] Tyrosine aromatic rings absorb in the 1508 cm^−1 region and the symmetric carboxylate stretching vibrations are reflected in the band at 1452 cm^−1. Overall, data reflect the ability to obtain spectra over a period of days which show the attachment of cells to the substrate and a response to perturbation.
Mouse cells (JB6 carcinogenesis mouse endothelial model cells) (clone 41-5a, ATCC, Manassas, Va., USA) were maintained in a minimal essential medium (MEM+GlutaMAX-I™, CISCO, Grand Island, N.Y.) supplemented with 5% fetal bovine serum (FBS) (Atlanta Biologicais, Norcross, Ga.) that further included: 1% penicillin/streptomycin (GIBCO, Grand Island, N.Y.) and an additional 1%. GlutaMAX-I™ (GIBCO, Grand Island, N.Y.). Cells were maintained at 37° C. and 5% CO2 in an incubator (e.g., a ThermoForma Series II Water Jacketed CO2 incubator. Thermo Fisher Scientific, inc., Waltham, Mass.) equipped with a HEPA filter. The JB6 cells were subcultured at 70-80% confluency following standard protocols. […]

Substance: basic fibroblast growth factor [bFGF]
- cell outcome to which spectral results are attributed: cell death
- 1696 cm^-1 amide peak (FIG. 7b): increased intensity and has broadened

Reference: US20110024630A1, “System, Device, and Methods for Real-Time Screening of Live Cells, Biomarkers, and Chemical Signatures” (BATTELLE MEMORIAL INSTITUTE, priority 2009, published 2011)
